According to the supplement of paper PMC7125110:
± gives the standard error. Variants at the floor of the assay were thinned out.

B1: glmS ribozyme (parent)
chain: AUAAAAGCGCCAGAACUACAGAAAUGUAGUUGACGAGGAGGAGGUUUAUCGAAUUUUCGGCGGAUGCCUCCAAA

Experiments:
Settings in all cases: with glucosamine-6-phosphate
glucosamine-6-phosphate [1] = variants of: B1; assay: self-cleavage kobs at 40 uM GlcN6P; higher = faster cleavage; RNA array
Method in brief: (§1)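 Glucosamine-6-phosphate in HEPES/KCl/Mg(OAc)2 buffer, at 40 μM to 10 mM, was flowed over barcoded ribozyme variants transcribed in situ by E. coli RNA polymerase on sequenced MiSeq chips. Tracking was through a hybridised Cy3 probe at 37 °C. kobs, kcat and KM came from exponential decay fits and weighted Michaelis–Menten fits of normalised per-tile medians.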

glucosamine-6-phosphate [2] = variants of: B1; assay: self-cleavage kobs at 10000 uM GlcN6P; higher = faster cleavage; RNA array
Method in brief: as §1

glucosamine-6-phosphate [3] = variants of: B1; assay: self-cleavage kobs at 640 uM GlcN6P; higher = faster cleavage; RNA array
Method in brief: as §1

glucosamine-6-phosphate [4] = variants of: B1; assay: self-cleavage kobs at 2500 uM GlcN6P; higher = faster cleavage; RNA array
Method in brief: as §1

glucosamine-6-phosphate [5] = variants of: B1; assay: self-cleavage kobs at 160 uM GlcN6P; higher = faster cleavage; RNA array
Method in brief: as §1

Variant | self-cleavage kobs at 40 uM GlcN6P (glucosamine-6-phosphate [1]) | self-cleavage kobs at 10000 uM GlcN6P (glucosamine-6-phosphate [2]) | self-cleavage kobs at 640 uM GlcN6P (glucosamine-6-phosphate [3]) | self-cleavage kobs at 2500 uM GlcN6P (glucosamine-6-phosphate [4]) | self-cleavage kobs at 160 uM GlcN6P (glucosamine-6-phosphate [5])
A12G A53U C58U | < 1e-05 s⁻¹ | – | – | – | –
A12U A42G U47A C68U | 0.000117 ± 4.6e-05 s⁻¹ | 0.00634 ± 0.0021 s⁻¹ | – | – | –
G13A A53U | < 1e-05 s⁻¹ | – | 7.57e-05 ± 2.4e-05 s⁻¹ | 0.000174 ± 4.1e-05 s⁻¹ | –
G13U G43C | < 1e-05 s⁻¹ | < 1e-05 s⁻¹ | < 1e-05 s⁻¹ | < 1e-05 s⁻¹ | < 1e-05 s⁻¹
A12C U30G G32U A33C C58U | < 1e-05 s⁻¹ | < 1e-05 s⁻¹ | – | – | –
A12U C70A | 8.79e-05 ± 1.1e-05 s⁻¹ | 0.00179 ± 0.00036 s⁻¹ | 0.00047 ± 5.2e-05 s⁻¹ | 0.00049 ± 7e-05 s⁻¹ | 0.000177 ± 2.9e-05 s⁻¹
A12C U31A C34U A36C A52G C58A G63U | < 1e-05 s⁻¹ | < 1e-05 s⁻¹ | – | – | –
G13C G29U G32A U54G U65C C68G U69G | 0.00014 ± 4.1e-05 s⁻¹ | 0.000151 ± 3.1e-05 s⁻¹ | 0.000623 ± 0.00016 s⁻¹ | 9.24e-05 ± 2.8e-05 s⁻¹ | 0.000198 ± 5.6e-05 s⁻¹
A14U G43C U69A | < 1e-05 s⁻¹ | < 1e-05 s⁻¹ | – | – | –
G13C G32C U47C | < 1e-05 s⁻¹ | – | – | – | –
A14G A36U A48U | < 1e-05 s⁻¹ | – | – | – | –
G13A A15C A33U G35A C58A | < 1e-05 s⁻¹ | – | – | – | –
A12G G13C G32U G40A A64C | < 1e-05 s⁻¹ | – | – | – | –
G13U A48G U65C U69G | < 1e-05 s⁻¹ | – | – | – | –
A14G A15G | 0.00218 ± 0.00029 s⁻¹ | 0.109 ± 0.035 s⁻¹ | 0.0134 ± 0.0029 s⁻¹ | 0.0102 ± 0.0027 s⁻¹ | 0.0049 ± 0.0015 s⁻¹
A14G G38A | < 1e-05 s⁻¹ | – | – | – | –
A15C A33C C50G C61G | 0.000147 ± 3.9e-05 s⁻¹ | 0.000196 ± 3.4e-05 s⁻¹ | – | – | –
G13A C50G C58A C70U | 6.62e-05 ± 1.6e-05 s⁻¹ | 9.7e-05 ± 2.5e-05 s⁻¹ | – | 0.000539 ± 6.7e-05 s⁻¹ | –
G13C U31C C71U | 4.32e-05 ± 2e-05 s⁻¹ | 0.00114 ± 0.00023 s⁻¹ | – | – | –
G13A G44A | < 1e-05 s⁻¹ | – | – | – | –
A15C G32U G60U | < 1e-05 s⁻¹ | < 1e-05 s⁻¹ | – | – | –
A12C C16G A36U | < 1e-05 s⁻¹ | < 1e-05 s⁻¹ | – | – | –
G13A G63A | < 1e-05 s⁻¹ | < 1e-05 s⁻¹ | – | – | < 1e-05 s⁻¹
A14U A52C C71G | < 1e-05 s⁻¹ | – | < 1e-05 s⁻¹ | – | –
A12G U27C G29U | < 1e-05 s⁻¹ | – | < 1e-05 s⁻¹ | < 1e-05 s⁻¹ | –
A12C A64U C68G | < 1e-05 s⁻¹ | – | – | – | –

Variant | self-cleavage kobs at 40 uM GlcN6P (glucosamine-6-phosphate [1]) | self-cleavage kobs at 10000 uM GlcN6P (glucosamine-6-phosphate [2]) | self-cleavage kobs at 640 uM GlcN6P (glucosamine-6-phosphate [3]) | self-cleavage kobs at 2500 uM GlcN6P (glucosamine-6-phosphate [4]) | self-cleavage kobs at 160 uM GlcN6P (glucosamine-6-phosphate [5])
A12C C50U U54G | < 1e-05 s⁻¹ | – | – | – | –
A15C A33U | < 1e-05 s⁻¹ | – | – | – | < 1e-05 s⁻¹
A12C U49A | < 1e-05 s⁻¹ | – | – | – | < 1e-05 s⁻¹
A14C A64C G66A | < 1e-05 s⁻¹ | – | – | – | < 1e-05 s⁻¹
A14U G41C G43A G63U C67A C70A | < 1e-05 s⁻¹ | < 1e-05 s⁻¹ | – | – | –
A14G G66A | 0.000901 ± 0.00011 s⁻¹ | 0.0634 ± 0.015 s⁻¹ | 0.00997 ± 0.0018 s⁻¹ | 0.0046 ± 0.001 s⁻¹ | 0.00369 ± 0.0009 s⁻¹
A12C G63A | < 1e-05 s⁻¹ | < 1e-05 s⁻¹ | < 1e-05 s⁻¹ | < 1e-05 s⁻¹ | < 1e-05 s⁻¹
G13C U46G | < 1e-05 s⁻¹ | – | < 1e-05 s⁻¹ | – | < 1e-05 s⁻¹
G13C G37A C50U G59C | < 1e-05 s⁻¹ | – | < 1e-05 s⁻¹ | < 1e-05 s⁻¹ | –
G13C G43U A52U | < 1e-05 s⁻¹ | < 1e-05 s⁻¹ | < 1e-05 s⁻¹ | < 1e-05 s⁻¹ | –
G13U G32A C50U | < 1e-05 s⁻¹ | < 1e-05 s⁻¹ | – | < 1e-05 s⁻¹ | –
A14U A39G G44A C50A C71A | < 1e-05 s⁻¹ | < 1e-05 s⁻¹ | – | < 1e-05 s⁻¹ | –
A15C C61U U69G | < 1e-05 s⁻¹ | < 1e-05 s⁻¹ | – | – | –
G13U A36U | < 1e-05 s⁻¹ | < 1e-05 s⁻¹ | < 1e-05 s⁻¹ | < 1e-05 s⁻¹ | < 1e-05 s⁻¹
A14G G44C C61A C68G | < 1e-05 s⁻¹ | – | – | – | –
A12U C16G U56G G59U | < 1e-05 s⁻¹ | – | – | – | –
A12U A14G C68U | 0.000526 ± 0.0001 s⁻¹ | – | – | – | –
G13A A14U C50G C68U | 8.53e-05 ± 1.7e-05 s⁻¹ | 0.000103 ± 1.5e-05 s⁻¹ | 0.000187 ± 4.7e-05 s⁻¹ | 0.000455 ± 0.00016 s⁻¹ | –
G13A U46G | < 1e-05 s⁻¹ | 0.00013 ± 3e-05 s⁻¹ | – | – | < 1e-05 s⁻¹
A14U G51A U57C G60U A64G U65G | < 1e-05 s⁻¹ | – | – | – | –
G13C A39U G59U | < 1e-05 s⁻¹ | – | – | – | –
A14G G44U U49C | < 1e-05 s⁻¹ | – | – | – | –
A12U G41A G44C U55G | < 1e-05 s⁻¹ | < 1e-05 s⁻¹ | – | – | –
A12G C50U | < 1e-05 s⁻¹ | < 1e-05 s⁻¹ | – | – | < 1e-05 s⁻¹
A12U C67A | 0.000743 ± 7.6e-05 s⁻¹ | – | 0.00261 ± 0.00048 s⁻¹ | 0.0101 ± 0.0038 s⁻¹ | 0.000983 ± 0.00027 s⁻¹
G13C U30G U54G G63U C67U | < 1e-05 s⁻¹ | < 1e-05 s⁻¹ | – | – | –
